The record followed here is US20260242478A1 (published 2026).

Assay [1] concerns the target Anti-CD28 Fab (SEQ ID NOs: 696, 697). Nature of the assay: phage ELISA; Fab-coated wells pre-incubated with CD28 antigen as competitor, anti-M13 HRP detection.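 Also: crude clonal phage supernatants screened by ELISA, comparing wells pre-treated with CD28 antigen in blocker against wells given blocker only, bound phage read via HRP-linked anti-M13.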 For orientation: An ELISA detects its analyte on a solid surface through an enzyme-linked reagent.
Target sequence in this assay (VH, as listed by the source, chain 1 of 2): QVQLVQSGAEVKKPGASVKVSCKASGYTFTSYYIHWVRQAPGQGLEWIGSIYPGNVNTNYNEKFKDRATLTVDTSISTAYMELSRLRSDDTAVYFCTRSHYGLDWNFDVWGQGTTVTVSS
Target sequence in this assay (VL, as listed by the source, chain 2 of 2): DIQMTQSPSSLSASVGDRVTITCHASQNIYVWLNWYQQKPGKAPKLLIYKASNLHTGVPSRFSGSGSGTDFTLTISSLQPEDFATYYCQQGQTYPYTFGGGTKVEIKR
Method: (§1) After panning, phage infected bacteria were plated out and colonies picked into 96 well blocks. Clonal phage was then amplified and separated from bacterial cells via centrifugation.
(§2) Clonal phage were harvested as crude supematants and screened via standard ELISAs. […] Prior to the addition of clonal phage, wells were incubated with blocking buffer and CD28 antigen or blocking buffer alone. Without washing or aspirating, clonal phage supematants were then added to the wells and incubated for a short time. Wells were then washed followed by detection of bound phage using a horse radish conjugated anti-M13 antibody. Clonal phage of interest were then sent for sequence analysis.
Assay [2] shares this target. Put plainly: phage ELISA; biotinylated anti-CD28 Fab on neutravidin plate, clonal phage supernatant, anti-M13 HRP detection.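 Also: crude supernatants of single phage clones picked after panning were screened for binding.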
Target sequence in this assay (VH, as listed by the source, chain 1 of 2): as the sequence (VH, as listed by the source, chain 1 of 2) above
Target sequence in this assay (VL, as listed by the source, chain 2 of 2): as the sequence (VL, as listed by the source, chain 2 of 2) above
Method: as §1, §2
Assay [3] deals with T1, Anti-CD28 Fab (SEQ ID NOs: 696, 697).
T1 construct: Biotinylated and captured on neutravidin coated plates in the phage ELISA
Put plainly: phage ELISA on captured anti-CD28 Fab, wells pre-incubated with CD28 antigen as competitor.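 Also: crude clonal phage supernatants added without washing, bound phage read out by HRP-coupled anti-M13 antibody, reference wells given blocking buffer only instead of CD28.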
T1 sequence (VH, as listed by the source, chain 1 of 2): as the sequence (VH, as listed by the source, chain 1 of 2) above
T1 sequence (VL, as listed by the source, chain 2 of 2): as the sequence (VL, as listed by the source, chain 2 of 2) above
Method: as §1, §2

For assay [4] the target is unchanged. Nature of the assay: phage ELISA, clonal phage on biotinylated anti-CD28 Fab captured on neutravidin plates.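 Also: crude clonal phage supernatants added to wells pretreated with CD28 antigen or with blocking buffer only, bound phage detected by HRP-linked anti-M13 antibody.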
Target sequence in this assay (VH, as listed by the source, chain 1 of 2): as the sequence (VH, as listed by the source, chain 1 of 2) above
Target sequence in this assay (VL, as listed by the source, chain 2 of 2): as the sequence (VL, as listed by the source, chain 2 of 2) above
Method: as §1, §2
Assay [5] has as its target T2, Anti-CD28 Fab (SEQ ID NOs: 696, 697).
T2 construct: Biotinylated and captured on neutravidin coated plates in the phage ELISA
Nature of the assay: phage ELISA on captured anti-CD28 Fab, wells first incubated with CD28 antigen (competitor).
T2 sequence (VH, as listed by the source, chain 1 of 2): as the sequence (VH, as listed by the source, chain 1 of 2) above
T2 sequence (VL, as listed by the source, chain 2 of 2): as the sequence (VL, as listed by the source, chain 2 of 2) above
Method: as §1, §2

The target is the same in assay [6]. Put plainly: phage ELISA, clonal phage on biotinylated anti-CD28 Fab captured on neutravidin, anti-M13-HRP detection.
Target sequence in this assay (VH, as listed by the source, chain 1 of 2): as the sequence (VH, as listed by the source, chain 1 of 2) above
Target sequence in this assay (VL, as listed by the source, chain 2 of 2): as the sequence (VL, as listed by the source, chain 2 of 2) above
Method: as §1, §2
Assay [7] concerns the target T3, Anti-CD28 Fab (SEQ ID NOs: 696, 697).
T3 construct: In the phage ELISA the Fab was biotinylated and captured on neutravidin coated plates
Put plainly: phage ELISA; biotinylated anti-CD28 Fab on neutravidin plate, clonal phage supernatant, anti-M13 HRP detection.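 Also: crude supernatants of single phage clones picked after panning were screened for binding.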
Method: as §1, §2

Assay [8] shares this target. Put plainly: phage ELISA; captured anti-CD28 Fab pre-incubated with CD28 antigen as competitor, anti-M13 HRP detection.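 Also: crude clonal phage supernatants screened by ELISA, with wells pre-incubated with CD28 antigen in blocking buffer, compared against wells given blocking buffer alone as control.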
Method: as §1, §2

For the molecule YCDGHAPLYIQKCL (Tested as clonal phage supernatant) [Phage-1095], the “Anti-CD28 Fab signal in the presence of CD28 (phage binding ELISA)” value (shortened to “Anti-CD28 Fab signal in the presence”) in assay [1] is 0.06. For the same molecule, the “Anti-CD28 Fab signal (phage binding ELISA)” value in assay [2] was found to be 1.34.

As to YCEGHLPMYMTKCL [Phage-1136], the “Anti-CD28 Fab signal in the presence” value in assay [3] worked out at 0.06. The “Anti-CD28 Fab signal (phage binding ELISA)” value in assay [4] was determined as 1.25.

Turning to YCDGHSEQYMAKCL [Phage-1137], the “Anti-CD28 Fab signal in the presence” value in assay [3] came out at 0.06. In assay [4], the “Anti-CD28 Fab signal (phage binding ELISA)” value amounted to 1.24.

With YCEGHLQEHMAKCL [Phage-1134], the “Anti-CD28 Fab signal in the presence” value in assay [3] was 0.05. The “Anti-CD28 Fab signal (phage binding ELISA)” value in assay [4] is 1.25.

Turning to YCDGHEARYMQKCL [Phage-1148], in assay [5], the “Anti-CD28 Fab signal in the presence” value came out at 0.07. Moreover, in assay [6], the “Anti-CD28 Fab signal (phage binding ELISA)” value amounted to 1.21.

As for YCAGLFEEYMSKCL [Phage-1135], the “Anti-CD28 Fab signal in the presence” value in assay [3] was 0.06. Also, in assay [4], the “Anti-CD28 Fab signal (phage binding ELISA)” value is 1.25.

YCEGHHRIYMQKCL [Phage-1131]: the “Anti-CD28 Fab signal in the presence” value in assay [3] was 0.07. In addition, the “Anti-CD28 Fab signal (phage binding ELISA)” value in assay [4] was 1.26.

For YCAGHLDIYLAKCL [Phage-1151], in assay [5], the “Anti-CD28 Fab signal in the presence” value came out at 0.07. The “Anti-CD28 Fab signal (phage binding ELISA)” value in assay [6] stood at 1.21.

Regarding YCDGHSKEYMAKCL (Tested as clonal phage supernatant) [Phage-1096], the “Anti-CD28 Fab signal in the presence” value in assay [1] is 0.06. In assay [2], the “Anti-CD28 Fab signal (phage binding ELISA)” value was determined as 1.34.

YCDGHMVQYMAKCL (Tested as clonal phage supernatant) [Phage-1089]: the “Anti-CD28 Fab signal in the presence” value in assay [1] was found to be 0.07. For the same molecule, in assay [2], the “Anti-CD28 Fab signal (phage binding ELISA)” value came out at 1.36.

Regarding YCDGHVEEYMTKCL [Phage-1141], the “Anti-CD28 Fab signal in the presence” value in assay [3] worked out at 0.07. In addition, the “Anti-CD28 Fab signal (phage binding ELISA)” value in assay [4] was 1.24.

Consider YCEGHMSIYMQKCL [Phage-1133], for which the “Anti-CD28 Fab signal in the presence” value in assay [3] came to 0.07. In addition, the “Anti-CD28 Fab signal (phage binding ELISA)” value in assay [4] worked out at 1.25.

On to YCDGHAPQYMRKCL (Tested as clonal phage supernatant) [Phage-1101], for which, in assay [1], the “Anti-CD28 Fab signal in the presence” value is 0.08. In assay [2], the “Anti-CD28 Fab signal (phage binding ELISA)” value was 1.33.

YCVGHYPEYMEKCL [Phage-1147]: the “Anti-CD28 Fab signal in the presence” value in assay [5] came to 0.07. In addition, the “Anti-CD28 Fab signal (phage binding ELISA)” value in assay [6] was found to be 1.22.

As for YCAGHVDQYLWKCL (Tested as clonal phage supernatant) [Phage-1099], the “Anti-CD28 Fab signal in the presence” value in assay [1] turned out to be 0.06. Also, the “Anti-CD28 Fab signal (phage binding ELISA)” value in assay [2] was 1.34.

YCAGHASEYMAKCL (Tested as clonal phage supernatant) [Phage-1100]: the “Anti-CD28 Fab signal in the presence” value in assay [1] came to 0.08. The “Anti-CD28 Fab signal (phage binding ELISA)” value in assay [2] is 1.33.

With YCEGHMEKYMEKCL (Tested as clonal phage supernatant) [Phage-1091], in assay [1], the “Anti-CD28 Fab signal in the presence” value is 0.11. Also, the “Anti-CD28 Fab signal (phage binding ELISA)” value in assay [2] came out at 1.35.

Regarding YCDGHSWEYLGKCL [Phage-1153], in assay [5], the “Anti-CD28 Fab signal in the presence” value was 0.05. Also, in assay [6], the “Anti-CD28 Fab signal (phage binding ELISA)” value turned out to be 1.2.

For YCEGHIGIYMSKCL [Phage-1143], in assay [5], the “Anti-CD28 Fab signal in the presence” value is 0.07. Besides, the “Anti-CD28 Fab signal (phage binding ELISA)” value in assay [6] was 1.23.

On to YCDGHLEQYMLKCL [Phage-1142], for which the “Anti-CD28 Fab signal in the presence” value in assay [3] is 0.09. Moreover, the “Anti-CD28 Fab signal (phage binding ELISA)” value in assay [4] came to 1.24.

With YCDGHLPRYMAKCL (Tested as clonal phage supernatant) [Phage-1092], the “Anti-CD28 Fab signal in the presence” value in assay [1] was 0.1. In assay [2], the “Anti-CD28 Fab signal (phage binding ELISA)” value came to 1.35.

Consider YCDGHLLQYMHKCL (Tested as clonal phage supernatant) [Phage-1094], for which the “Anti-CD28 Fab signal in the presence” value in assay [1] is 0.07. Moreover, the “Anti-CD28 Fab signal (phage binding ELISA)” value in assay [2] stood at 1.35.

B1: Phage-1073 (peptide)
peptide: YCDGHAEQYMSKCL
notes: Clonal phage supernatant; not shown: fused to the pIII filament protein of the bacteriophage
In the case of B1, the “Anti-CD28 Fab signal (phage binding ELISA)” value in assay [7] came out at 1.38. Besides, the “Anti-CD28 Fab signal in the presence” value in assay [8] amounted to 0.07.

Regarding YCEGHAAEYLWKCL [Phage-1154], the “Anti-CD28 Fab signal in the presence” value in assay [5] is 0.09. The “Anti-CD28 Fab signal (phage binding ELISA)” value in assay [6] was determined as 1.18.

B2: Phage-1074 (peptide)
peptide: YCDGLFQLYMMKCL
notes: as for B1
As to B2, the “Anti-CD28 Fab signal (phage binding ELISA)” value in assay [7] came to 1.38. The “Anti-CD28 Fab signal in the presence” value in assay [8] turned out to be 0.07.

Consider YCEGHLAEYMNKCL [Phage-1140], for which the “Anti-CD28 Fab signal in the presence” value in assay [3] turned out to be 0.07. Besides, in assay [4], the “Anti-CD28 Fab signal (phage binding ELISA)” value came to 1.24.

In the case of YCEGHSTEYIQKCL [Phage-1144], in assay [5], the “Anti-CD28 Fab signal in the presence” value was determined as 0.09. Further, the “Anti-CD28 Fab signal (phage binding ELISA)” value in assay [6] turned out to be 1.23.

As for YCDGHSQEYMSKCL [Phage-1149], in assay [5], the “Anti-CD28 Fab signal in the presence” value was determined as 0.06. In addition, the “Anti-CD28 Fab signal (phage binding ELISA)” value in assay [6] turned out to be 1.21.

Consider YCDGHSEAYIEKCL (Tested as clonal phage supernatant) [Phage-1098], for which the “Anti-CD28 Fab signal in the presence” value in assay [1] turned out to be 0.06. Besides, the “Anti-CD28 Fab signal (phage binding ELISA)” value in assay [2] was determined as 1.34.

In the case of YCDGHSEEFMWKCL (Tested as clonal phage supernatant) [Phage-1090], the “Anti-CD28 Fab signal in the presence” value in assay [1] was found to be 0.06. Moreover, the “Anti-CD28 Fab signal (phage binding ELISA)” value in assay [2] is 1.35.

Take YCDGHSSVYMLKCL [Phage-1130]: the “Anti-CD28 Fab signal in the presence” value in assay [3] stood at 0.06. For the same molecule, the “Anti-CD28 Fab signal (phage binding ELISA)” value in assay [4] is 1.26.

Take YCEGHTQEYMQKCL [Phage-1138]: the “Anti-CD28 Fab signal in the presence” value in assay [3] was 0.07. Moreover, in assay [4], the “Anti-CD28 Fab signal (phage binding ELISA)” value amounted to 1.24.

On to YCEGHSAEHMPKCL [Phage-1146], for which the “Anti-CD28 Fab signal in the presence” value in assay [5] turned out to be 0.09. For the same molecule, in assay [6], the “Anti-CD28 Fab signal (phage binding ELISA)” value turned out to be 1.23.

On to YCEGHSPEYMHKCL (Tested as clonal phage supernatant) [Phage-1097], for which, in assay [1], the “Anti-CD28 Fab signal in the presence” value stood at 0.09. The “Anti-CD28 Fab signal (phage binding ELISA)” value in assay [2] worked out at 1.34.

On to YCAGHTAEYMAKCL [Phage-1139], for which, in assay [3], the “Anti-CD28 Fab signal in the presence” value amounted to 0.08. Further, the “Anti-CD28 Fab signal (phage binding ELISA)” value in assay [4] was 1.24.

For the molecule YCDGHSMMYMQKCL [Phage-1145], the “Anti-CD28 Fab signal in the presence” value in assay [5] came to 0.06. For the same molecule, the “Anti-CD28 Fab signal (phage binding ELISA)” value in assay [6] came out at 1.23.

For YCEGHSEEYMAKCL [Phage-1132], the “Anti-CD28 Fab signal in the presence” value in assay [3] amounted to 0.07. Besides, the “Anti-CD28 Fab signal (phage binding ELISA)” value in assay [4] came out at 1.26.

Consider YCHGHLPQYMSKCM [Phage-1150], for which the “Anti-CD28 Fab signal in the presence” value in assay [5] came to 0.06. Also, the “Anti-CD28 Fab signal (phage binding ELISA)” value in assay [6] was determined as 1.21.

For YCAGHAPEYISKCL [Phage-1152], in assay [5], the “Anti-CD28 Fab signal in the presence” value stood at 0.07. For the same molecule, in assay [6], the “Anti-CD28 Fab signal (phage binding ELISA)” value was found to be 1.21.

In the case of YCDGHLPEYMQKCL (Tested as clonal phage supernatant) [Phage-1093], in assay [1], the “Anti-CD28 Fab signal in the presence” value was found to be 0.08. Also, the “Anti-CD28 Fab signal (phage binding ELISA)” value in assay [2] was 1.35.
